We go through 1 substance from doi:10.1101/2025.03.19.644124.

Holding throughout (test): BLI
Test [1] concerns the target biotinylated PpBRCA2-BRC1 peptide (Physcomitrium patens).
The target in test [2] is 6His-PpBRCA2-Cter (amino acids 251 to 391) (Physcomitrium patens).
Test [3] concerns the target biotinylated PpBRCA2-BRC2 peptide (Physcomitrium patens).
Test [4] addresses biotinylated PpBRCA2-BRC4 peptide (Physcomitrium patens).

One may read the Kd as the concentration at which binding is half-saturated. Lower therefore signals higher affinity. With “recombinant PpRAD51-2, tag-free (natural protein)”, the Kd in test [1] turned out to be 400 nM; in test [2], 4.3 nM; in test [3], 800 nM; in test [4], 400 nM.
